In PMC10901376 (Science Advances, 2024):

Target: the molecule itself
Assay: cryo-EM structure

B1: S. aureus TarL H300N (enzyme, UniProt Q2G1B8 1-562, looked up)
chain: MVKSKIYIDKIYWERVQLFVEGHSENLDLEDSNFVLRNLTETRTMKANDVKIDGNQFVCRFNVAILDNGYYLPEDKYLLVNEQELDYIAQLNPDVINDAYQNLKPEQEEEYNELETQNGKINFLLQTYLKEFRKGGISKKTVYTVTPEISSDVNEFVLDVVVTTPEVKSIYIVRKYKELRKYFRKQSFNTRQFIFKAIFNTTKFFHLKKGNTVLFTSDSRPTMSGNFEYIYNEMLRQNLDKKYDIHTVFKANITDRRGIIDKFRLPYLLGKADYIFVDDFHPLIYTVRFRRSQEVIQVWNAVGAFKTVGFSRTGKKGGPFIDSLNHRSYTKAYVSSETDIPFYAEAFGIKEKNVVPTGVPRTDVLFDEAYATQIKQEMEDELPIIKGKKVILFAPTFRGSGHGTAHYPFFKIDFERLARYCEKNNAVVLFKMHPFVKNRLNIADKHKQYFVDVSDFREVNDILFITDLLISDYSSLIYEYAVFKKPMIFYAFDLEDYITTRDFYEPYESFVPGKIVQSFDALMDALDNEDYEGEKVIPFLDKHFKYQDGRSSERLVRNLFGS
stoichiometry N: 4
